By Kd is commonly meant the free concentration of one partner at which half of the binding sites on the other are occupied at equilibrium, for simple one-to-one binding.

This series addresses T1, Tbx2 T-box DNA-binding domain, TBX2(94-281) (UniProt Q60707 94-281).
T1 sequence: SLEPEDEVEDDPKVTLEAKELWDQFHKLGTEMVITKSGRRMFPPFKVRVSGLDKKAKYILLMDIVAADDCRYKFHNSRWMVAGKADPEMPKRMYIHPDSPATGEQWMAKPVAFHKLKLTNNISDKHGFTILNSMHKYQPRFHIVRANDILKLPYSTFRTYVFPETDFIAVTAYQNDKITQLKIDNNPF
In words: fluorescence anisotropy; 50 mM HEPES/NaOH pH 7.3, 200 mM NaCl, 25 C, 10 min, 3.33 nM dsDNA probe. The settings on record: protein: recombinant, tags: N-terminal His tag removed by 3C protease (pETM14, NcoI/XhoI), blunt.

B1: E-box probe (dsDNA)
DNA 1: GAGACCACGTGTTGAC
DNA 2: GTCAACACGTGGTCTC
Regarding B1, the dissociation constant (Kd) (label: fluorescein on S14 (printed at the 3' end), complement unlabeled) is around 86 nM.

B2: T-element (T-box) probe (dsDNA)
DNA 1: AATTTCACACCTAGGTGTGAAATT
DNA 2: AATTTCACACCTAGGTGTGAAATT
For B2, the Kd (label: fluorescein (printed at the 3' end), self-complementary palindrome, 2 copies) is around 602 nM.
